Experiment [1] concerns the target T1, human ANGPTL3/8 complex (human, UniProt Q9Y5C1 17-460; Q6UXH0 22-198, limits assumed).
T1 construct: also called hANGPTL3/8 complex; ANGTPL3/8 complex
T1 sequence 1: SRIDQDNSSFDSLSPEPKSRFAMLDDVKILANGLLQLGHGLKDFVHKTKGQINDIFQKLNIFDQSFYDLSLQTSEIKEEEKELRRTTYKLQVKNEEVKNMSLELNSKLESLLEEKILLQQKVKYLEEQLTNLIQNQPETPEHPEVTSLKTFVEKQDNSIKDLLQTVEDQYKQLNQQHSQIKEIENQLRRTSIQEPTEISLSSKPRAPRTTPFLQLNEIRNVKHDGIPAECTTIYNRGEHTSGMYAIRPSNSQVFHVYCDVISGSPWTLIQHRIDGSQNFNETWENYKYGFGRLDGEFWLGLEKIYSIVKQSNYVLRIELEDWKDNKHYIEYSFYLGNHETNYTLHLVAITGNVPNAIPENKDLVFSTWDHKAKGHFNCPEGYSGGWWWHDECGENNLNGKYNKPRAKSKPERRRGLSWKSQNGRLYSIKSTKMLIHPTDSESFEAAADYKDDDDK
T1 sequence 2: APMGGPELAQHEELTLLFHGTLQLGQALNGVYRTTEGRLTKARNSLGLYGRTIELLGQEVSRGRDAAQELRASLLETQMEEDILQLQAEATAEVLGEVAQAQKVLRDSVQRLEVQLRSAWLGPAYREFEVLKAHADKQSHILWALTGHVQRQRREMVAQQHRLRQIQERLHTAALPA
The experiment can be described thus: SPR, Biacore T200; Ab captured on Human Fab Binder, complex injected; pH 7.4, 25 C. (Surface plasmon resonance follows binding to a sensor surface in real time, without labels.)

For experiment [2], the target named is T2, cynomolgus ANGPTL3/8 complex (cynomolgus, UniProt A0A2K5UDC5 17-460; A0A2K5WWS3 22-198).
T2 construct: also called cyno ANGPTL3/8
T2 sequence 1: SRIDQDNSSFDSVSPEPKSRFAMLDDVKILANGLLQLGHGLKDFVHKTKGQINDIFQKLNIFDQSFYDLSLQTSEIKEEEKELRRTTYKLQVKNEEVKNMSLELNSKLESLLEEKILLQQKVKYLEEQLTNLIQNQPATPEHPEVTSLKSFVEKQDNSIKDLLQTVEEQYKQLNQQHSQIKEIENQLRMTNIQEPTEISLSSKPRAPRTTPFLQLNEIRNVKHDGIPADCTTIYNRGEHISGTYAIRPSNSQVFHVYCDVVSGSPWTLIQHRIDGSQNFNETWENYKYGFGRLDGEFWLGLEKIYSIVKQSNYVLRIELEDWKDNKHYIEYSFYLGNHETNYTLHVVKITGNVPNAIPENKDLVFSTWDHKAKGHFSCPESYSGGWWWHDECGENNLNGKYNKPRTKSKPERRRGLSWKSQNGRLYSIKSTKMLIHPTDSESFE
T2 sequence 2: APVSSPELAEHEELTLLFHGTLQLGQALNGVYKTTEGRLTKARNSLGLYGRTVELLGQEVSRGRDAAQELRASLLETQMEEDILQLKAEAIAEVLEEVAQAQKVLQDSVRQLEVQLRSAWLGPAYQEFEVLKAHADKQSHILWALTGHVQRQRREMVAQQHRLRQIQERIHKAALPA
The experiment is described as above.

Experiment [3] deals with T3, mouse ANGPTL3/8 complex (mouse, UniProt Q9R182 17-455; Q8R1L8 16-198, limits assumed).
T3 sequence (looked up) 1: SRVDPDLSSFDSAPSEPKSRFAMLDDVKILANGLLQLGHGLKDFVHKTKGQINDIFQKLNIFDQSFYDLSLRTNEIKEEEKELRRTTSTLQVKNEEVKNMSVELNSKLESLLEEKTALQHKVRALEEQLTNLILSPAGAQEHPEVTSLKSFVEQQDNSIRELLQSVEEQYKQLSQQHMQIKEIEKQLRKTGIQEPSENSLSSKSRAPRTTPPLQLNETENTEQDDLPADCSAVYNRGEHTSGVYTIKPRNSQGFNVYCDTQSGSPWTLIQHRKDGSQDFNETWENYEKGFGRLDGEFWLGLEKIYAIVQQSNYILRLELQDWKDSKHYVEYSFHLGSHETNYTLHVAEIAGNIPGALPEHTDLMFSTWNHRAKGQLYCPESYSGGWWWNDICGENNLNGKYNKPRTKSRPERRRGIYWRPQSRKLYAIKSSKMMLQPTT
T3 sequence (looked up) 2: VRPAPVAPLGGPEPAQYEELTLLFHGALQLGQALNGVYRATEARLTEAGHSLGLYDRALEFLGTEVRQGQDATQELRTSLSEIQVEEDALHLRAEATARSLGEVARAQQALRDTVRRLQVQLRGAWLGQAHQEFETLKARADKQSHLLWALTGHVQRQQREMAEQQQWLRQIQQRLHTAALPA
The description is as above.

Experiment [4] addresses T1, human ANGPTL3/8 complex. Description: cell-based or functional assay.
Experiment [5] has as its target T2, cynomolgus ANGPTL3/8 complex. The experiment can be described thus: cell-based or functional assay.
Experiment [6] addresses rat ANGPTL3/8 complex (rat, UniProt F7FHP0 17-446). The experiment can be described thus: cell-based or functional assay.
Experiment [7] deals with T3, mouse ANGPTL3/8 complex. Description: cell-based or functional assay.

rat ANGPTL3/8 complex, sequence (F7FHP0 entry or part of it, one chain of several): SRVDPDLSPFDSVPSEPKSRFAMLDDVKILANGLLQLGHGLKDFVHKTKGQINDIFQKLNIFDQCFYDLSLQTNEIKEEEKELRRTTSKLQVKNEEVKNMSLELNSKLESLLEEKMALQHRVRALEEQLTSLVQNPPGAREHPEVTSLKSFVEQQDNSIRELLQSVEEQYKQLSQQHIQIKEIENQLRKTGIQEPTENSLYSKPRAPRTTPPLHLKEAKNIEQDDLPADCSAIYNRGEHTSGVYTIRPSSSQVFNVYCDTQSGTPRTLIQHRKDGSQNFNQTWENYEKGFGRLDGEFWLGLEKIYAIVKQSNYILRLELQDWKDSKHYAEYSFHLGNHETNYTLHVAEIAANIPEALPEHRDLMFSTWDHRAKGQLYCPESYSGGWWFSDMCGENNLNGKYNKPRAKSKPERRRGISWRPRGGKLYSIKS

B1: anti-ANGPTL3/8 complex Ab having a LC of SEQ ID NO:5 and a HC of SEQ ID NO:6 (antibody, human IgG4 S228P, kappa, F234A L235A, V domains shown)
VH: QVTLKESGPTLVKPTQTLTLTCTFSGFSLSISGVGVGWIRQPPGKALEWLALIYRNDDKRYSPSLKSRLTITKDTSKNQVVLTLTNMDPVDTATYYCARTYSSGWYGNWFDPWGQGTLVTVSS
VL: DIVMTQTPLSLPVTPGEPASISCRSSQSLLDSDDGNTYLDWYLQKPGQSPQLLIYMLSYRASGVPDRFSGSGSGTDFTLKISRVEAEDVGIYYCMQRIEFPLTFGGGTKVEIKR
notes: In the ELISA assays tested as IgG from CHO supernatants; also called the Ab
The Kd is a measure of binding affinity in units of concentration. A high value points to weaker binding. As usually defined, the koff is a measure of how fast the partners let go of each other. As a reminder, the kon is the second-order rate constant of association. The low end stands for slow association, the high end for fast association. For the molecule B1, the results for the Kd in experiment [1], in experiment [2] and in experiment [3] were 135 pM, 213 pM and 366 pM, respectively. For the same molecule, the figures for the koff in experiment [1], in experiment [2] and in experiment [3] were 6.31e-05 s⁻¹, 9.91e-05 s⁻¹ and 0.000172 s⁻¹, respectively. Moreover, the kon is 477000 M⁻¹ s⁻¹ in experiment [1], 491000 M⁻¹ s⁻¹ in experiment [2] and 475000 M⁻¹ s⁻¹ in experiment [3]. For the same molecule, the “% Max Derepression of LPL” value in experiment [4] came out at 102%; in experiment [5], 96%; in experiment [6], 105%; in experiment [7] it was 103%. In addition, the “Ab EC50 (nM), derepression of LPL” value was 0.28 nM in experiment [4], 1.31 nM in experiment [5], 2.77 nM in experiment [6] and 1.38 nM in experiment [7].

The record behind these values is patent US20200199213A1 (Eli Lilly, published 2020).
